From patent publication US20240252628A1 (ACCELERON PHARMA, published 2024)
Where two headings read alike, the source gives them in different places. Values belong to the binder of their own block, whether it stands above or below them.

What was measured:
Test in all cases: SPR (Biacore), anti-Fc capture of receptor
BMP9 [1] = molecular target: T1, BMP9 (UniProt Q9UK05 320-429)
T1 construct: also called GDF2
T1 sequence (looked up): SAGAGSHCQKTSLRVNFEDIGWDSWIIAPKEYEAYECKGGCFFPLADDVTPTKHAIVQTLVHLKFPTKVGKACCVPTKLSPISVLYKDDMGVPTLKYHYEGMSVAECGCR
Experimental: (§1) A Biacore™-based binding assay was used to compare ligand binding selectivity of the ActRIIB-Fc:ALK7-Fc heterodimeric complex described above with that of ActRIIB-Fc and ALK7-Fc homodimeric complexes. The ActRIIB-Fc:ALK7-Fc heterodimer, ActRIIB-Fc homodimer, and ALK7-Fc homodimer were independently captured onto the system using an anti-Fc antibody. Ligands were injected and allowed to flow over the captured receptor protein. Results are summarized in the table below, in which ligand off-rates (kd) most indicative of effective ligand traps are denoted by in bold.

BMP5 = molecular target: T2, BMP5 (UniProt P22003 317-454, limits assumed)
T2 sequence (looked up): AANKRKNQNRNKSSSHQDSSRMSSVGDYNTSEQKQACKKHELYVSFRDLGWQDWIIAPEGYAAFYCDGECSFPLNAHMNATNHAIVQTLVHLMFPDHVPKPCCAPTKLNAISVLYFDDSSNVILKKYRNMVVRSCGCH
Experimental: as §1

BMP6 [2] = molecular target: T3, BMP6 (UniProt P22004 382-513, limits assumed)
T3 sequence (looked up): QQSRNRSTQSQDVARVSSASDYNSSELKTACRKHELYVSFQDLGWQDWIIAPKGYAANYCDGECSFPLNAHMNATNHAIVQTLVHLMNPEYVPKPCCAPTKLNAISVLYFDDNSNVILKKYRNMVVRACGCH
Experimental: as §1

activin C = molecular target: T4, activin C (UniProt P55103 237-352)
T4 sequence (looked up): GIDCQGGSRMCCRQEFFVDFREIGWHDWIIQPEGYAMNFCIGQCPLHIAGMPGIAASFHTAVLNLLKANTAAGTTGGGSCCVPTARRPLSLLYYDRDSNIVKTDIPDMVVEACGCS
Experimental: as §1

GDF3 [3] = molecular target: T5, GDF3 (UniProt Q9NR23 251-364)
T5 sequence (looked up): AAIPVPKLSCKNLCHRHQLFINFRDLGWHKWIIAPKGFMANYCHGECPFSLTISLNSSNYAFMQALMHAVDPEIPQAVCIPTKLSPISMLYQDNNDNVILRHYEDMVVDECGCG
Experimental: as §1

GDF11 [4] = molecular target: T6, GDF11 (UniProt O95390 299-407)
T6 construct: also called BMP11
T6 sequence (looked up): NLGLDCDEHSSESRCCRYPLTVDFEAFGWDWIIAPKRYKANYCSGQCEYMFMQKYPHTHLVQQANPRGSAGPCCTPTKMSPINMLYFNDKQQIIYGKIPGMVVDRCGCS
Experimental: as §1

activin A [5] = molecular target: T7, activin A (UniProt P08476 311-426)
T7 construct: The same holds for m2-m11
T7 sequence (looked up): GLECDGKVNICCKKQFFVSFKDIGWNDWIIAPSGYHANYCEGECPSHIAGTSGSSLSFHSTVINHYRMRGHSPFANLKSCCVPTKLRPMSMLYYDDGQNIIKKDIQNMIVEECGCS
Experimental: as §1

GDF8 [6] = molecular target: T8, GDF8 (UniProt O14793 267-375)
T8 construct: also called myostatin
T8 sequence (looked up): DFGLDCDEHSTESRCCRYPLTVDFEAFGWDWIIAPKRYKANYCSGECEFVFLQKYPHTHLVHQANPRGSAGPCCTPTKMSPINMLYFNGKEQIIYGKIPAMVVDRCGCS
Experimental: as §1

activin B [7] = molecular target: T9, activin B (UniProt P09529 293-407)
T9 sequence (looked up): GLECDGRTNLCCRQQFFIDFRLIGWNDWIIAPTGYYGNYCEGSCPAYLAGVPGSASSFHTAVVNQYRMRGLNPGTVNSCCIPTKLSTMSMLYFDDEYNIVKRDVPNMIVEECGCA
Experimental: as §1

activin AC = molecular target: T10, activin AC (UniProt P08476 311-426; P55103 237-352)
T10 sequence (looked up) 1: T7 sequence (looked up)
T10 sequence (looked up) 2: T4 sequence (looked up)
Experimental: as §1

BMP10 [8] = molecular target: T11, BMP10 (UniProt O95393 317-424)
T11 sequence (looked up): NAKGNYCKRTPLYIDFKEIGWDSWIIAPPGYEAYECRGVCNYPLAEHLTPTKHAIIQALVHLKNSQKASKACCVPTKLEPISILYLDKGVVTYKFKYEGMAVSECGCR
Experimental: as §1

BMP9 [9] = molecular target: T1, BMP9; remark: listed apart in the source
Experimental: as §1, with “ActRIIB-Fc:ALK4-Fc” for “ActRIIB-Fc:ALK7-Fc”, “ALK4-Fc homodimer” for “ALK7-Fc homodimeric”, “ALK4-Fc” for “ALK7-Fc”, “denoted” for “denoted by”

BMP6 [10] = molecular target: T3, BMP6; remark: listed apart in the source
Experimental: as §1, with “ActRIIB-Fc:ALK4-Fc” for “ActRIIB-Fc:ALK7-Fc”, “ALK4-Fc homodimer” for “ALK7-Fc homodimeric”, “ALK4-Fc” for “ALK7-Fc”, “denoted” for “denoted by”

GDF3 [11] = molecular target: T5, GDF3; remark: listed apart in the source
Experimental: as §1, with “ActRIIB-Fc:ALK4-Fc” for “ActRIIB-Fc:ALK7-Fc”, “ALK4-Fc homodimer” for “ALK7-Fc homodimeric”, “ALK4-Fc” for “ALK7-Fc”, “denoted” for “denoted by”

GDF11 [12] = molecular target: T6, GDF11; remark: listed apart in the source
Experimental: as §1, with “ActRIIB-Fc:ALK4-Fc” for “ActRIIB-Fc:ALK7-Fc”, “ALK4-Fc homodimer” for “ALK7-Fc homodimeric”, “ALK4-Fc” for “ALK7-Fc”, “denoted” for “denoted by”

activin A [13] = molecular target: T7, activin A; remark: listed apart in the source
Experimental: as §1, with “ActRIIB-Fc:ALK4-Fc” for “ActRIIB-Fc:ALK7-Fc”, “ALK4-Fc homodimer” for “ALK7-Fc homodimeric”, “ALK4-Fc” for “ALK7-Fc”, “denoted” for “denoted by”

GDF8 [14] = molecular target: T8, GDF8; remark: listed apart in the source
Experimental: as §1, with “ActRIIB-Fc:ALK4-Fc” for “ActRIIB-Fc:ALK7-Fc”, “ALK4-Fc homodimer” for “ALK7-Fc homodimeric”, “ALK4-Fc” for “ALK7-Fc”, “denoted” for “denoted by”

activin B [15] = molecular target: T9, activin B; remark: listed apart in the source
Experimental: as §1, with “ActRIIB-Fc:ALK4-Fc” for “ActRIIB-Fc:ALK7-Fc”, “ALK4-Fc homodimer” for “ALK7-Fc homodimeric”, “ALK4-Fc” for “ALK7-Fc”, “denoted” for “denoted by”

BMP10 [16] = molecular target: T11, BMP10; remark: listed apart in the source
Experimental: as §1, with “ActRIIB-Fc:ALK4-Fc” for “ActRIIB-Fc:ALK7-Fc”, “ALK4-Fc homodimer” for “ALK7-Fc homodimeric”, “ALK4-Fc” for “ALK7-Fc”, “denoted” for “denoted by”

binding result (BMP9 [1]): no binding | binding result (BMP5): no binding | binding result (BMP6 [2]): no binding | binding result (activin C): no binding | binding result (GDF3 [3]): no binding | binding result (GDF11 [4]): no binding | binding result (activin A [5]): no binding | binding result (GDF8 [6]): no binding | binding result (activin B [7]): no binding | binding result (activin AC): no binding | binding result (BMP10 [8]): no binding
B1: ALK7-Fc homodimer (Fc fusion, not shown: a dimerising Fc or GST)
chain: LSPGLKCVCLLCDSSNFTCQTEGACWASVMLTNGKEQVIKSCVSLPELNAQVFCHSSNNVTKTECCFTDFCNNITLHLPTASPNAPKLGPME
notes: the whole extracellular entry is named

Kd (BMP9 [9]): 3400 pM | Kd (BMP6 [10]): 2700 pM | koff (BMP6 [10]): 0.0055 s⁻¹ | kon (BMP6 [10]): 2e+06 M⁻¹ s⁻¹ | Kd (GDF3 [11]): 4900 pM | koff (GDF3 [11]): 0.017 s⁻¹ | kon (GDF3 [11]): 3.4e+06 M⁻¹ s⁻¹ | Kd (GDF11 [12]): 3 pM | koff (GDF11 [12]): 0.00011 s⁻¹ | kon (GDF11 [12]): 3.8e+07 M⁻¹ s⁻¹ | Kd (activin A [13]): 12 pM | koff (activin A [13]): 0.00015 s⁻¹ | kon (activin A [13]): 1.3e+07 M⁻¹ s⁻¹ | Kd (GDF8 [14]): 550 pM | koff (GDF8 [14]): 0.00021 s⁻¹ | kon (GDF8 [14]): 390000 M⁻¹ s⁻¹ | Kd (activin B [15]): 6 pM | koff (activin B [15]): 4e-05 s⁻¹ | kon (activin B [15]): 7.1e+06 M⁻¹ s⁻¹ | Kd (BMP10 [16]): 74 pM | koff (BMP10 [16]): 0.0041 s⁻¹ | kon (BMP10 [16]): 5.6e+07 M⁻¹ s⁻¹
B2: ActRIIB-Fc:ALK4-Fc heterodimer (Fc fusion)
chain 1: GRGEAETRECIYYNANWELERTNQSGLERCEGEQDKRLHCYASWRNSSGTIELVKKGCWLDDFNCYDRQECVATEENPQVYFCCCEGNFCNERFTHLPEAGGPEVTYEPPPTAPTGGGTHTCPPCPAPELLGGPSVFLFPPKPKDTLMISRTPEVTCVVVDVSHEDPEVKFNWYVDGVEVHNAKTKPREEQYNSTYRVVSVLTVLHQDWLNGKEYKCKVSNKALPAPIEKTISKAKGQPREPQVYTLPPSRKEMTKNQVSLTCLVKGFYPSDIAVEWESNGQPENNYKTTPPVLKSDGSFFLYSKLTVDKSRWQQGNVFSCSVMHEALHNHYTQKSLSLSPGK
chain 2: SGPRGVQALLCACTSCLQANYTCETDGACMVSIFNLDGMEHHVRTCIPKVELVPAGKPFYCLSSEDLRNTHCCYTDYCNRIDLRVPSGHLKEPEHPSMWGPVETGGGTHTCPPCPAPELLGGPSVFLFPPKPKDTLMISRTPEVTCVVVDVSHEDPEVKFNWYVDGVEVHNAKTKPREEQYNSTYRVVSVLTVLHQDWLNGKEYKCKVSNKALPAPIEKTISKAKGQPREPQVYTLPPSREEMTKNQVSLTCLVKGFYPSDIAVEWESNGQPENNYDTTPPVLDSDGSFFLYSDLTVDKSRWQQGNVFSCSVMHEALHNHYTQKSLSLSPG
notes: the receptor domains are the same in all; also called ALK4-Fc:ActRIIB-Fc heterodimer; ActRIIB-Fc:ALK4-Fc heterodimeric complex

Kd (BMP9 [1]): > 1400 pM | Kd (BMP5): 57000 pM | koff (BMP5): 0.0085 s⁻¹ | kon (BMP5): 150000 M⁻¹ s⁻¹ | Kd (BMP6 [2]): 5300 pM | koff (BMP6 [2]): 0.0063 s⁻¹ | kon (BMP6 [2]): 1.2e+06 M⁻¹ s⁻¹ | Kd (activin C): 6900 pM | koff (activin C): 0.0024 s⁻¹ | kon (activin C): 350000 M⁻¹ s⁻¹ | Kd (GDF3 [3]): 4500 pM | koff (GDF3 [3]): 0.01 s⁻¹ | kon (GDF3 [3]): 2.3e+06 M⁻¹ s⁻¹ | Kd (GDF11 [4]): 8 pM | koff (GDF11 [4]): 0.00075 s⁻¹ | kon (GDF11 [4]): 9.5e+07 M⁻¹ s⁻¹ | Kd (activin A [5]): 43 pM | koff (activin A [5]): 0.0019 s⁻¹ | kon (activin A [5]): 4.4e+07 M⁻¹ s⁻¹ | Kd (GDF8 [6]): 270 pM | koff (GDF8 [6]): 0.001 s⁻¹ | kon (GDF8 [6]): 3.7e+06 M⁻¹ s⁻¹ | Kd (activin B [7]): 17 pM | koff (activin B [7]): 0.0002 s⁻¹ | kon (activin B [7]): 1.2e+07 M⁻¹ s⁻¹ | Kd (activin AC): 220 pM | koff (activin AC): 0.00057 s⁻¹ | kon (activin AC): 2.6e+06 M⁻¹ s⁻¹ | Kd (BMP10 [8]): 190 pM | koff (BMP10 [8]): 0.0028 s⁻¹ | kon (BMP10 [8]): 1.5e+07 M⁻¹ s⁻¹
B3: ActRIIB-Fc:ALK7-Fc heterodimer (Fc fusion)
chain 1: B2 chain 1
chain 2: GLKCVCLLCDSSNFTCQTEGACWASVMLTNGKEQVIKSCVSLPELNAQVFCHSSNNVTKTECCFTDFCNNITLHLPTASPNAPKLGPMETGGGTHTCPPCPAPELLGGPSVFLFPPKPKDTLMISRTPEVTCVVVDVSHEDPEVKFNWYVDGVEVHNAKTKPREEQYNSTYRVVSVLTVLHQDWLNGKEYKCKVSNKALPAPIEKTISKAKGQPREPQVYTLPPSREEMTKNQVSLTCLVKGFYPSDIAVEWESNGQPENNYDTTPPVLDSDGSFFLYSDLTVDKSRWQQGNVFSCSVMHEALHNHYTQKSLSLSPG
notes: also called ActRIIB-Fc:ALK7 heterodimer; ActRIIB-Fc:ALK7-Fc heterodimeric complex
